The nanobody polyreactivity screen of Harvey et al. (2022)

Assay: yeast display, Sf9 membrane polyspecificity reagent, FACS + sequencing; frameworks hold sequencing errors
Summary of the method: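 Galactose induction of a Saccharomyces cerevisiae BJ5465 synthetic nanobody display library ran 36–48 hours. The cells were then stained for 1 hour at 4 °C with 10% biotinylated, detergent-solubilized Sf9 membrane reagent, pulled down on streptavidin microbeads and FACS-sorted into low and high (top ~1%) gates on expression and reagent-binding fluorescence. Labels for polyreactivity follow the gate of origin.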

Sequence	polyreactivity (PSR sort gate)
QVQLVESGGGLVQAGGSLRLSCAPSGRIFFHYAMGWYRQAPGKERELVAAISRRGGNTYYADSVKGRFTISRDNAKNTVYLQMNRLKPEDTAVYYCAAQYRVGYDYWGQGTQVTVSS	high polyreactivity
QVQLVESGGGLVQAGGSLRLSCAPSGRIFHQYAMGFYRKSPGKERELVAAITWSGGSTHYADSVKGRYTISRDNAKNTVYLQLNSLKPEDTAVYYCAARKSGGLLDYWGQGTQVTVSS	low polyreactivity
QVQLVESGGGLVQAGGSLRLSCAPSGRIFPGYAMGWYRQAPGKERELVAAISTNGGRTYYADSVKGRFTISRDNAKNTVYLQMNSLKPEDTAVYYCNAARAVYTQKRFDSWGQGTQVTVSS	high polyreactivity
QVQLVESGGGLVQAGGSLRLSCAPSGRIFQWYAMGWYRQAPGKERELVAAIRNGGTTNYADSVKGRFTISRDNAKNTVYLQMNSVIPVDTAVYYCNADKYRTWDFQPRYPGGYWGQGTQVTVSS	low polyreactivity
QVQLVESGGGLVQAGGSLRLSCAPSGRIFSHYAMGWYRQAPGKERELVAAITSDGSTNYADSVKGRFTISRDNAKKTVYLQMNSLKPEDTAVYYSAKYVHIPDYYYLFGSYDYWGQGTQVTVSS	low polyreactivity
QVQLVESGGGLVQAGGSLRLSCAPSGRIFYGYAMGWYRQAPGKERELVAAITSGSRTNYADSVKGRFTISRDNAKNTVYLQMNSLKPEDTAVYYCHSLYGSYLYSLVHTSRYDYWGQGSQVTVSS	low polyreactivity
QVQLVESGGGLVQAGGSLRLSCAPSGRIIYRYAIGWYRQAPRKETDLVAAITIGGRTNYADSVKGRFTISRDNANNPVYLEMISLKPEDTAVYYCAVVLYTRYPPRVRYYYWGQGTQVTVSS	high polyreactivity
QVQLVESGGGLVQAGGSLRLSCAPSGRISFRYAMGWYRQAPGKERELVAAINRGGITNYADSVKGRFTISRDNAKNTVYLQMNSLKPEDTADYYCAAEGFYDYYNGFDYSGQGTQVTVSS	high polyreactivity
QVQLVESGGGLVQAGGSLRLSCAPSGRTFDQYAMGWYRQAPGKERELVADITWSGGTTRYADSVKGRFTISRDHAKNTVYLQMNSLKPEDTAVYYCAVEVTWGYNYWGQVTQVTVSS	low polyreactivity
QVQLVESGGGLVQAGGSLRLSCAPSGRTFGRYAMGWYRQAPGKERELVAAITRSGGSTYYADSVKGRFTISRDIAKNTVYLQMNSLKPEDTAVYYCNAGWRLGRGYWGQGTEVTVSS	high polyreactivity
QVQLVESGGGLVQAGGSLRLSCAPSGRTFGVYAMGWYRQAPGKERELVATISFNVASTYADSVKGRFTISRDNAKNTVYLQMNSLKPEDTAVYYCAVTAVRPLPLDSGYDYWGQGTQVTVSS	low polyreactivity
QVQLVESGGGLVQAGGSLRLSCAPSGRYYAMGWNRQAPGKEREMVAAISSGGSTNYADSVKGRFTISRDNAKNTVYLQMNSLKPEDTAVYYCAALIRQLRYYLYYYWGQGTQVTVSS	high polyreactivity
QVQLVESGGGLVQAGGSLRLSCAPSGSIFAQYAMGWYRQAPGKERELVATISSVGSTNYADSVKGRFTISRDNAKNTVYLQMNSLKPEDTAVYYCNAVRSGWGYFYGLNYWGQGTQVTVSS	low polyreactivity
QVQLVESGGGLVQAGGSLRLSCAPSGSIFDCNAMGWYRQAPGKERELVAAISVSGGSTYYADSVKGRFTISRDNAKNTVYLQMNSLKPEDKAVYYCAAETWTDGWYYDYWGQGTQVTVSS	high polyreactivity
QVQLVESGGGLVQAGGSLRLSCAPSGSIFGSYAMGWYRQAPGKERELVAAIRRSSASTYYADSVKGRFTISRDNAKNTVYLQMNSLKPEDTAVYYCATQSYSYYGYRYRYAAYDYWGQGTQVTVSS	high polyreactivity
QVQLVESGGGLVQAGGSLRLSCAPSGSIFGYYTMGCYRQAPGKEREFVAAISYSGGSTYYADSVKGRFTISRDNANNTVYLQMNSLKPEDTAVYYCAARLYYFRGFKYYYWGQGTQVTVSS	low polyreactivity

Sequence	polyreactivity (PSR sort gate)
QVQLVESGGGLVQAGGSLRLSCAPSGSIFHYYAMGWYRQAPGKERELVAAISWSGGRTNYADSVKGRFTISSDNAKNTVYLQMNSLKPEDTAVYYCAAGNSFSDRGHRVYFQYYYWGQGTQVTVSS	high polyreactivity
QVQLVESGGGLVQAGGSLRLSCAPSGSIFIRNAMGWYRQAPGKERELVAAISGSGSSTYYADSVKGRFTISRDNAKNTVYLQMNSLKPEDTAVYYCNTDRTHSYQYGGYDYWGQGTQVTVSS	low polyreactivity
QVQLVESGGGLVQAGGSLRLSCAPSGSIFRGYAMGWYRQAPGKERELVAAISSGGSTYYADSVKGRFTISRDNAKNTVDLQMNSLKPEDTAVYYCATSTYAYRRISYYSWGQCTQVTVSS	high polyreactivity
QVQLVESGGGLVQAGGSLRLSCAPSGSIFRLYAMGWYRQAPGKERELVAAITSSGGRTYYADSVKGRFTISRDNAKNTVYLQINSLKPVDTAVYYCAAVGNRGDDYYWGQGTQVTVSS	high polyreactivity
QVQLVESGGGLVQAGGSLRLSCAPSGSIFRWYAMGWYRQAPGKERELVAAITSGGSTYYADSVKGRFTISRDNAKNTVYVQMNSLKPEDTAVYYCNAAKLASHTYDYWGQGTQVTVSS	low polyreactivity
QVQLVESGGGLVQAGGSLRLSCAPSGSILGSNAMGGYRQAPGKERELVAAITSSGGSTYYADSVKGRFTISRDNAKNTVYLQMNSLKPEDTAVYYCNADATDSYPEKDYHDSWGQGTQVTVSS	low polyreactivity
QVQLVESGGGLVQAGGSLRLSCAPSGSIYDDYAMGWYRQAPGKERELVAAISSSGTSTYYADSVKGRFTISRDNAKNTVYLQMIRLKPEDTAGYYCAARSAILKSGYLMDYWGQGTLVTVSS	low polyreactivity
QVQLVESGGGLVQAGGSLRLSCAPSGSTFGSNAMGWYRQAPGKERELVAAINSGDSTSYADSVKGRFTISRDNAKNTVYLQMNSLKPEDTAGYYCATRSYTFVWRHDYWGQGTQVTVSS	low polyreactivity
QVQLVESGGGLVQAGGSLRLSCAPSGSTFGWYAMGWYRQAPGKESELFAAITGDSASTYYADSVKGRFTISRDNAKNTVYLQMNSLKQEDTAVYYCAATKFSDFAYEAVIGYGYWGQGTQVTVSS	low polyreactivity
QVQLVESGGGLVQAGGSLRLSCAPSGSTFSGYAMGWYRQAPGKEREFVATISISGCSTYYADSVKGRFTISRDNAKNTVYLQMNSLKPEDTAVYYCAKDSGSYRVGIYEPFPYGYWGQGTQVTVSS	low polyreactivity
QVQLVESGGGLVQAGGSLRLSCAPSGSTFSHNAMGWYRQAPGKEREFVAAISWSGGGTYADSVKGRFTISRDYAKNTVYLQMNSLKPEDTAVYYCNKVSYRSSSSSWFDYWGQGTQVTVSS	low polyreactivity
QVQLVESGGGLVQAGGSLRLSCAPSGSTFTHNALGWYRQAPGKERELVAAINNRGGTTYYADSVKGRFTISRDNAKNTVLLQMNSLKPEDIAVYYCNARYHYGRYGYWGQGTQVTVSS	high polyreactivity
QVQLVESGGGLVQAGGSLRLSCAPSGSTFYPYAMGWYRQAPGKEREFVAAIRSSGTSTYYADSVKGRFTISRDNAKNTVYLQMNSLKPEDTAVYYCAARVRGYSVTRTKPASIGGGSWGQGTQVTVSS	high polyreactivity
QVQLVESGGGLVQAGGSLRLSCAPSGSTFYRYAMGWYRQAPGKERELVAAISSSGGRTYYADSVKGRFTISRDNAKNTDYLQMNSLKPEDTAVYYCAADYTKHYWGQGTQVTVSS	high polyreactivity
QVQLVESGGGLVQAGGSLRLSCAPSGSTSYLYAMGWYRQAPGKERELVATITTRSGSTYYADSVKGRFTISRDNAKNTVYIQMNSLKPEDTAVYYCAARWISVWSEGAEHDYWGQGTQVTVSS	low polyreactivity
